The values that follow come from patent US20220298475A1.

Assay [1] concerns the target SIINFEKL N4 peptide (OVA257-264) presented on MHC-I H-2Kb of dendritic cells (mouse). Nature of the assay: cell-based or functional assay.
Assay [2] concerns the target LCMV Gp61-80 peptide … presented by MHC-II of dendritic cells (lymphocytic choriomeningitis virus (LCMV)). Nature of the assay: cell-based or functional assay.

LCMV Gp61-80 peptide … presented by MHC-II of dendritic cells (lymphocytic choriomeningitis virus (LCMV)), sequence (P07399 61-80): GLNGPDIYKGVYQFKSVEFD

As for “transgenic T cell receptor (TCR) of OT-I CD8+ T cells, specific for the SIINFEKL N4 of ovalbumin presented on MHC I”, in assay [1], the signal-to-background ratio of biotin labeling on OT-I CD8+ cells (iDC-FT pulsed with 10 nM peptide, flow cytometry) (ratio (signal:background)) amounted to 10; the signal-to-background ratio of biotin labeling on OT-I CD8+ cells (iDC-FT pulsed with 100 nM peptide, flow cytometry) (ratio (signal:background)) came out at 66; the signal/background ratio of biotinylated OT-I CD8+ T cells, DC-FT made by Method 1 (background: DC-enzyme primed with LCMV GP33-41) is 592; the signal/background ratio of biotinylated OT-I CD8+ T cells, DC-NHS-FT made by Method 2 (background: DC-enzyme primed with LCMV GP33-41) was found to be 9.2. Further, in assay [1], the streptavidin-APC+ OT-I CD8+ cells, DC-FT made by Method 1 is 77% and the streptavidin-APC+ OT-I CD8+ cells, DC-NHS-FT made by Method 2 was 16%.
“TCR of OT-II CD4+ T cells, specific for the OVA323-339 peptide” gave a percentage of OT-II CD4+ T cells biotinylated by peptide-pulsed DC-FT in assay [2] of 1.68%.
